Values joined by “and” are separate entries in the source; they are usually repeats but may differ in a detail not shown here. Identical values can stand only once.
Molecular target: PKM2 (mouse (endogenous in splenic B cells of C57BL/6J mice)) (UniProt P52480)
Experiment: cross-linking; lysates of purified CD19+ splenic B cells from C57BL/6J mice cultured with or without Hcy (100 μmol/L) for 24 h, cross-linked with glutaraldehyde; Western blot for PKM2 oligomer states

Sequence of PKM2, P52480 1-531 (enzyme; other documents disagree on this pair) (P52480 whole entry): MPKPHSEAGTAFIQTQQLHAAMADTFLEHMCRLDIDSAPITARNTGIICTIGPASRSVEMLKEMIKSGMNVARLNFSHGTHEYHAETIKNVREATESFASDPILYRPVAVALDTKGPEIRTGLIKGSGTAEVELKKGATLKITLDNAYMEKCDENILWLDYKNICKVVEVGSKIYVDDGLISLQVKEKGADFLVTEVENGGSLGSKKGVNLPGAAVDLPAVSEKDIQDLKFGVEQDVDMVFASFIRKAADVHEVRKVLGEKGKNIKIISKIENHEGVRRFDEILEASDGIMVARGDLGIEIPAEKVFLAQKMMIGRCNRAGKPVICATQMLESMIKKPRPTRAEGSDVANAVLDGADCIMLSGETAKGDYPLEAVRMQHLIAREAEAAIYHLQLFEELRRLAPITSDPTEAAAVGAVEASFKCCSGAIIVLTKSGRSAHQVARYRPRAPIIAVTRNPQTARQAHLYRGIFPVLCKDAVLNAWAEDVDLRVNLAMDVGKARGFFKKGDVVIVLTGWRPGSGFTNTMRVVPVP

stoichiometry N: 4 and 2
Substance: PKM2, P52480 1-531 (enzyme; other documents disagree on this pair)
